Experimental data taken from US11807881B2, “Polypeptide, fusion polypeptide, and antibiotic against gram-negative bacteria comprising same” (priority 2020, dated 2023).

What was measured:
Acinetobacter baumannii = assay: CFU reduction test; format: cell-based
Method: In addition, that the LNT101 endolysin had the antibacterial ability in various gram negative bacterium was confirmed by a CFU reduction test, and the result was shown in Table 2 below.
(§1) In order to confirm the killing ability against gram negative bacterium of the fusion polypeptide LNT103 prepared in Example 3.2, CFU reduction evaluation was performed for various gram negative bacterium. In order to perform the CFU reduction evaluation, 2 μM of each of LNT101, LNT102, and LNT103 prepared in Example 3, and 1×10^6 CFU of each of Pseudomonas aeruginosa (PA01; ATCC 15692), Acinetobacter baumannii (ATCC 17978), Escherichia coli (ATCC 8739), Klebsiella pneumoniae (ATCC 13883), and Enterobacter aerogenes (CCARM 16006) were added to reaction buffer (20 mM Tris-Cl, pH7.5) so that the final volume was 200 μl, and it was left at 37° C. for 2 hours. After that, the number of the colonies of each gram negative bacterium was confirmed to compare and evaluate the antibiotic effect of each polypeptide. As a control group, the PBS treatment group (treating PBS in the same volume as the fusion polypeptide) was used.

gram negative bacterium = assay: CFU reduction evaluation on various gram negative bacterium; format: cell-based
Method: For this, Endolysin LNT101 and LNT102 at a concentration of 2 μM and each 1×10^6 CFU of Pseudomonas aeruginosa (PA01; ATCC 15692), Acinetobacter baumannii (ATCC 17978), Escherichia coli (ATCC 8739), Klebsiella pneumoniae (ATCC 13883), Enterobacter aerogenes (CCARM 16006), and Salmonella enteritidis (ATCC 13076) was added in reaction buffer (20 mM Tris-Cl, pH 7.5) so that the final volume was 200 μl, and it was left at 37° C. for 2 hours. In 2 hours, the number of colonies of each gram negative bacterium was confirmed, and the result was shown in FIG. 8 (in FIG. 8, PA90 represents endolysin LNT101 and mtPA90 represents endolysin LNT102, respectively).
The endolysin LNT102 at a concentration of 0.1, 0.5, 2.5 μM, and each 1×10^6 CFU of Pseudomonas aeruginosa, Acinetobacter baumannii, and Escherichia coli was added in reaction buffer (20 mM Tris-Cl, pH 7.5) so that the final volume was 200 μl, and it was left at 37° C. for 2 hours.
as §1
In addition, the same test was performed by using the fusion polypeptide LNT103, and CecA-LNT101 at a concentration of 2 μM, and the result was shown in FIG. 15. For comparison, the same test was performed for groups treated with LNT102 or PBS.
On the other hand, in order to compare the antibacterial activity in case that a protein other than endolysin (LNT102 or LNT101) was fused to Cecropin A, the killing ability against gram negative bacterium of the fusion polypeptide LNT103 and cecropin A-EGFP fusion protein (a protein in which EGFP (GenBank Accession No. AAB02572.1) having no endolysin activity by replacing LNT102 in LNT103) was evaluated. For this, the proteins were treated in an amount of 0.2 μM or 2 μM, respectively, to perform the CFU reduction test. […] In particular, it could be confirmed that the CFU Counting result for all the tested gram negative bacterium killed all bacterium treated with 0, when LNT103 2 μM was treated.
Furthermore, the killing ability against gram negative bacterium according to the concentration and/or treatment time of the fusion polypeptide LNT103 was tested. Specifically, the fusion polypeptide LNT103 at a concentration of 0.1, 0.3, 0.9, or 2.7 μM and 1×10^6 CFU of Pseudomonas aeruginosa (PA01; ATCC 15692) or Acinetobacter baumannii (ATCC 19606) were added to reaction buffer (20 mM Tris-Cl, pH7.5) so that the final volume was 200 μl, and it was left at 37° C. for 2 hours, and then the number of the colonies was confirmed, and the result was shown in A of FIG. 17.
In addition, the fusion polypeptide LNT103 at a concentration of 2 μM and 1×10^6 CFU of Pseudomonas aeruginosa (PA01; ATCC 15692) were added to reaction buffer (20 mM pH7.5) so that the final volume was 200 μl, and in 0, 20 minutes, 40 minutes and 60 minutes at 37° C., the number of the colonies was confirmed, and the result was shown in B of FIG. 17. […]

Molecule	CFU reduction (Acinetobacter baumannii; A. baumannii ATCC 2508)	CFU reduction (Acinetobacter baumannii; A. baumannii F4)	CFU reduction (Acinetobacter baumannii; A. baumannii F15)	killing ability (number of colonies) (gram negative bacterium; 2 μM, 2 hours, 37° C., P. aeruginosa PA01, A. baumannii ATCC 17978, E. coli ATCC 8739, K. pneumoniae ATCC 13883, E. aerogenes CCARM 16006, S. enteritidis ATCC 13076)	CFU Counting result (Acinetobacter baumannii; Acinetobacter baumannii (ATCC 19606, ATCC 17978), 2 μM, 2 hours) [log CFU/ml]	antibacterial activity (CFU reduction test) (gram negative bacterium; 0.2 μM or 2 μM (FIG. 16))	CFU reduction effect compared to LNT101 and LNT102 (gram negative bacterium; 2 μM, 2 hours, 37° C., 1×10^6 CFU of each gram negative bacterium)	counting result (gram negative bacterium; 2 μM, all the tested bacterium (FIG. 15)) [log CFU/ml]	CFU Counting result (gram negative bacterium; LNT103 2 μM, all the tested gram negative bacterium (FIG. 16))	killing ability (number of colonies) (gram negative bacterium; P. aeruginosa PA01 and A. baumannii ATCC 19606, 0.1-2.7 μM 2 hours, 2 μM 0-60 minutes, 1 μM 0-10 minutes)
LNT101: endolysin derived from bacteriophage PBPA90, amino acid sequence SEQ ID NO: 1 (259 aa), purified with 6× His tag (protein, 6xHis tag; synthetic_Endolysin LNT101) MGTVLKRGDRGSAVEDLQMKLRVAGYAVSADGIFGGDTEKAVRDFQASKALVVDGKVGPATLAELAKSATVPAKWEAIPFPTANKSRSAAMPTLNAVGAMTGTDSRLLATFASIESAFDYTVKASTSSATGWFQFLDATWDDMIKAHGSKYGIPKDPTRALRKDPRANALMGAEFLKGNAAVLRPVINREPSDTDLYLAHFLGAGGAKKFLSADQKTLGEVLFPKPAKANPSIFSNKGVPRTLAEIYKLFEDKVSKHRA	◯ (‘◯’ means reduction of 0.5 log CFU or more through the CFU reduction assay)	◯ (‘◯’ means reduction of 0.5 log CFU or more through the CFU reduction assay)	◯ (‘◯’ means reduction of 0.5 log CFU or more through the CFU reduction assay)	excellent killing ability compared to the control group						
LNT103: fusion polypeptide [Cecropin A]-[linker (GSGSGS)]-[endolysin LNT102]; SEQ ID NO: 15 (MAS, His tag) used in the tests (protein, synthetic_Fusion Polypeptide LNT103 with MAS, His tag, and extra sequence) MASKWKLFKKIEKVGQNIRDGIIKAGPAVAVVGQATQIAKGSGSGSMGTVLKRGDRGSAVEDLQMKLNVAGYNLSADGIFGGDTEKAVRDVQAGAGLVVDGKVGPKTLYAIAKSATVPAKWEAIPFPTANKSRSAAMPTLNAVGAMTGVDSRLLATFASIESAFDYTVKAKTSSATGWFQFLDATWDDMIKAYGSKYGIPKDPTRALRKDPRANALMGAEFIKGNAAVLRPVINREPSDTDLYLAHFLGAGGAKKFLSADQKTLGEVLFPKPAKANPSIFSNKGVPRTLAEIYKLFEDKVSKHRALEHHHHHH					0	had excellent antibacterial activity	1.5˜5.5 log CFU/ml	0	0	had the killing ability against gram negative bacterium in a concentration and time-dependent manner
